Results: the supplement of paper PMC10567573

B1: FBXO39 (parent)
chain: PSRVHASEVESAVWYVKKFGRYLE
B2: MATN2 (parent)
chain: TDDSYSCHCLKGFTLNPDKKTCRR

Variants of: B1
Assay: protein stability index of a GFP-peptide fusion (GPS, HEK-293T) (PSI 1-6); higher = more stable
Settings: c terminus: a fixed tail appended
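Also: lentivirally expressed fusions sorted by FACS into six bins by GFP to DsRed ratio, PSI derived from sequencing read proportions per bin multiplied by bin number.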

Protein stability index of substitutions, site by site:
R21: D 3 | N 2.3 | H 2.04 | W 2.08 | M 1.37 | L 1.53 | S 2.22 | F 1.9 | Y 1.65 | G 2.42 | E 2.5 | C 1.47 | P 1.98 | K 1.87 | Q 2.09 | T 2.08 | I 2.19 | V 2.42 | A 1.74
V16: F 1.83 | S 3.08 | I 1.72 | C 2.65 | K 3.01 | H 3.32 | R 3.17 | T 2.43 | A 2.4 | E 2.96 | G 2.81 | L 1.87 | D 3.18 | Y 2.44 | W 2.27 | N 3.18 | P 2.54 | M 2.65 | Q 2.5
K18: L 1.79 | S 1.81 | P 2.07 | T 1.73 | W 2.4 | A 1.65 | Q 1.75 | Y 1.47 | I 2.93 | V 1.75 | C 2.36 | D 2.33 | M 1.82 | N 1.88 | H 1.89 | R 1.5 | E 2.37 | G 2.02 | F 1.95
E10: G 1.41 | M 1.49 | C 1.99 | S 2.51 | N 1.66 | I 1.85 | K 2.21 | R 2.37 | F 2.31 | L 3.06 | D 1.84 | H 1.65 | P 2.04 | Y 2 | A 1.64 | V 1.54 | T 2.69 | Q 2.17
V9: Y 1.94
Y15: E 2.45 | W 1.15 | K 2.53 | D 3.73 | C 1.74 | V 1.41 | R 2.21 | Q 2.74 | M 2.9 | H 2.65 | N 3.31 | F 1.42 | A 2.07 | P 2.61 | S 2.4 | L 2.34 | T 2.09 | G 2.84 | I 1.58
G20: A 3.14 | H 1.62 | I 1.91 | N 2.38 | L 1.75 | M 2.09 | P 1.64 | K 2.19 | Y 1.46 | F 1.55 | T 1.28 | E 2.95 | D 2.27 | W 2.97 | Q 2.55 | S 2.04 | V 1.96 | R 2.1
W14: C 3.17 | Y 2.18 | F 1.73 | R 2.58 | H 3.44 | E 2.8 | G 2.89 | Q 2.87 | D 3.84 | M 3.3 | A 2.96 | V 2.64 | L 2.32 | P 2.96 | N 3.68 | K 2.67 | I 2.38 | S 3.22 | T 3.68
S11: A 2.03 | E 2.57 | L 1.99 | H 2.08 | N 1.97 | D 2.49 | I 2.1 | R 2.07 | P 1.95 | W 1.54 | M 2.17 | K 2.91 | Q 1.64 | C 2.4 | Y 2.07 | G 1.84 | V 1.57 | T 2.03 | F 1.74
K17: S 2.84 | F 1.87 | A 2 | E 2.35 | G 2.57 | C 1.34 | P 1.89 | R 3.25 | Y 2.66 | L 2.52 | N 2.82 | H 2.1 | I 2.39 | V 1.9 | Q 2.27 | T 1.77 | D 2.25 | W 1.61 | M 1.91
Y22: C 2.44 | L 1.62 | E 2.58 | H 2.69 | D 2.89 | G 2.85 | I 1.85 | S 2.58 | A 2.39 | W 3.81 | R 2.98 | F 1.91 | N 2.71 | T 2.03 | M 2.1 | V 2.28 | Q 2.74 | K 3.58 | P 2.67
E24: P 2.26 | D 1.9 | N 2.06 | S 1.83 | H 1.94 | I 2.01 | L 1.54 | C 2.42 | A 1.59 | M 2.07 | K 2.13 | G 1.94 | R 2.22 | Q 1.99 | F 1.94 | Y 2.2 | W 2.33 | V 1.74 | T 2.55
A12: C 1.49 | E 3.02 | T 2.08 | S 2.18 | N 3.01 | R 2.54 | I 2.34 | Q 3.27 | K 2 | W 2.98 | Y 1.65 | D 2.13 | F 1.28 | P 2.25 | V 1.29 | G 2.02 | L 2.08 | M 2.16 | H 2.83
V13: I 1.61 | A 2.44 | G 2.4 | P 3.59 | W 1.6 | R 2.17 | F 1.45 | Q 2.73 | M 2.13 | E 2.96 | N 3.09 | C 1.95 | H 2.72 | L 2.5 | Y 1.43 | T 1.96 | S 2.57 | K 1.78 | D 2.9
L23: H 2.45 | S 2.76 | Y 2.53 | Q 2.74 | P 2.58 | M 2.09 | V 2.49 | R 2.5 | N 2.5 | K 3.07 | W 2.08 | I 2.17 | T 2.32 | C 2.26 | G 1.48 | A 2.59 | E 2.26 | D 2.9 | F 2.05
F19: P 2.72 | I 1.88 | Y 2.5 | K 3.32 | G 3.17 | N 3.43 | S 2.42 | D 3.27 | T 2.55 | R 2.88 | E 3.76 | W 2.12 | L 2.22 | V 1.98 | A 2.77 | Q 2.79 | C 2.04 | M 2.14 | H 3.06

Variants of: B2
Assay: as above
Settings: c terminus: a fixed tail appended

Protein stability index of substitutions, site by site:
T1: S 2.63 | D 2.55 | P 2.81 | W 2.35 | Q 1.75 | V 3.42 | F 2.21 | I 2.1 | C 2 | K 1.75 | R 2.95 | M 2.47 | N 1.86 | A 2.47 | H 2.7 | G 2.71 | E 2.09 | L 2.36
D3: H 2.15 | K 1.93 | I 1.91 | A 2.24 | G 2.36 | L 2.36 | C 2.17 | R 2.2 | Q 2.13 | N 2.1 | M 2.31 | F 1.67 | E 1.73 | P 2.93
D2: K 2.85 | M 2.09 | H 2.15 | F 1.41 | T 2.08 | W 2.24 | E 1.98 | Y 1.26 | A 1.88 | P 1.66 | I 2.02 | R 2.29 | G 2.98 | C 1.88 | L 2.81 | N 2.32 | Q 1.82 | S 2.11
